Data taken from US20260242735A1 (UNIVERSIT T BASEL, published 2026).
Blank lines part the entries; values can stand above or below the binder they belong to.

Key:
human wild-type CD33 [1] = target: T1, human wild-type CD33 (human, UniProt P20138 18-364); experiment: flow cytometry, Fab at 0.25 ug/ml on HEK293-T cells expressing CD33 against vector alone
T1 construct: also called SIGLEC3; P67
Description: (§1) Serial dilutions of each Fab were tested for immunoreactivity against cells expressing wild-type CD33 or vector alone. The optimal screening concentration for the Fabs was determined based on the raw signal values and signal-to-background calculations. Each point represents the mean of four replicates.

human wild-type CD33 [2] = target: T1, human wild-type CD33; experiment: flow cytometry, IgG at 0.50 ug/ml on HEK293-T cells expressing CD33 against vector alone
Description: (§2) Binding of the antibodies to the transfected cells and the optimal assay conditions were evaluated in 384-well format. Detection of cellular expression was measured via high-throughput flow cytometry. Serial dilutions of each antibody were tested for immunoreactivity against cells expressing CD33 or vector alone. The optimal screening concentration for each antibody was determined based on the raw signal values and signal-to-background calculations. Each point represents the mean of four replicates.

human wild-type CD33 [3] = target: T1, human wild-type CD33; experiment: flow cytometry, Fab at 0.25 ug/ml on HEK293-T cells expressing CD33 against vector alone; remark: listed apart in the source
Description: as §1

human CD33 W22A = human CD33 W22A (human, UniProt P20138 18-364); experiment: flow cytometry, alanine scan
Description: (§3) An alanine scan on human CD33 was performed to the determine the residues on CD33 that are involved in binding to the antibodies investigated. […] Briefly, a mutation library of CD33 was created by high-throughput, site-directed mutagenesis. Each residue was individually mutated to alanine, with alanine codons mutated to serine. The mutant library was arrayed in 384-well microplates and transiently transfected into HEK293-T. Following transfection, cells were incubated with the indicated antibodies (IgG or Fab) at concentrations pre-determined using an independent immunofluorescence titration curve on wild type CD33. […] Binding of each antibody to each mutant clone was determined in duplicates. For each point, background fluorescence was subtracted from the raw data, which were then normalized to antibody reactivity with wild type CD33.
(§4) Critical residues for antibody binding (outlined in dark grey) were residues whose mutations led to a binding of the test Abs of less than 20%. Additional secondary residues (outlined in light grey) were identified that led to a binding of the test Abs of between 20 and 40% as compared to the wild type CD33.

human CD33 C36A = human CD33 C36A (human, UniProt P20138 18-364); experiment: flow cytometry, alanine scan
Description: as §3, §4

human CD33 S28A = human CD33 S28A (human, UniProt P20138 18-364); experiment: flow cytometry, alanine scan
Description: as §3, §4

human CD33 N20A = human CD33 N20A (human, UniProt P20138 18-364); experiment: flow cytometry, alanine scan
Description: as §3, §4

human CD33 V25A = human CD33 V25A (human, UniProt P20138 18-364); experiment: flow cytometry, alanine scan
Description: as §3, §4

human CD33 D18A = human CD33 D18A (human, UniProt P20138 19-364); experiment: flow cytometry, alanine scan
Description: as §3, §4

human CD33 G34A = human CD33 G34A (human, UniProt P20138 18-364); experiment: flow cytometry, alanine scan
Description: as §3, §4

human CD33 E27A = human CD33 E27A (human, UniProt P20138 18-364); experiment: flow cytometry, alanine scan
Description: as §3, §4

human CD33 Q26A = human CD33 Q26A (human, UniProt P20138 18-364); experiment: flow cytometry, alanine scan
Description: as §3, §4

human CD33 C41A = human CD33 C41A (human, UniProt P20138 18-364); experiment: flow cytometry, alanine scan
Description: as §3, §4

human CD33 T42A = human CD33 T42A (human, UniProt P20138 18-364); experiment: flow cytometry, alanine scan
Description: as §3, §4

human CD33 V37A = human CD33 V37A (human, UniProt P20138 18-364); experiment: flow cytometry, alanine scan
Description: as §3, §4

human CD33 F43A = human CD33 F43A (human, UniProt P20138 18-364); experiment: flow cytometry, alanine scan
Description: as §3, §4

human CD33 L23A = human CD33 L23A (human, UniProt P20138 18-364); experiment: flow cytometry, alanine scan
Description: as §3, §4

human CD33 V29A = human CD33 V29A (human, UniProt P20138 18-364); experiment: flow cytometry, alanine scan
Description: as §3, §4

human CD33 L38A = human CD33 L38A (human, UniProt P20138 18-364); experiment: flow cytometry, alanine scan
Description: as §3, §4

human CD33 F21A = human CD33 F21A (human, UniProt P20138 18-364); experiment: flow cytometry, alanine scan
Description: as §3, §4

human CD33 V31A = human CD33 V31A (human, UniProt P20138 18-364); experiment: flow cytometry, alanine scan
Description: as §3, §4

human CD33 H45A = human CD33 H45A (human, UniProt P20138 18-364); experiment: flow cytometry, alanine scan
Description: as §3, §4

human CD33 V39A = human CD33 V39A (human, UniProt P20138 18-364); experiment: flow cytometry, alanine scan
Description: as §3, §4

human CD33 E33A = human CD33 E33A (human, UniProt P20138 18-364); experiment: flow cytometry, alanine scan
Description: as §3, §4

human CD33 P19A = human CD33 P19A (human, UniProt P20138 18-364); experiment: flow cytometry, alanine scan
Description: as §3, §4

human CD33 Q32A = human CD33 Q32A (human, UniProt P20138 18-364); experiment: flow cytometry, alanine scan
Description: as §3, §4

human CD33 F44A = human CD33 F44A (human, UniProt P20138 18-364); experiment: flow cytometry, alanine scan
Description: as §3, §4

human CD33 Q24A = human CD33 Q24A (human, UniProt P20138 18-364); experiment: flow cytometry, alanine scan
Description: as §3, §4

human CD33 T30A = human CD33 T30A (human, UniProt P20138 18-364); experiment: flow cytometry, alanine scan
Description: as §3, §4

human CD33 P40A = human CD33 P40A (human, UniProt P20138 18-364); experiment: flow cytometry, alanine scan
Description: as §3, §4

human CD33 L35A = human CD33 L35A (human, UniProt P20138 18-364); experiment: flow cytometry, alanine scan
Description: as §3, §4

human wild-type CD33 [4] = target: T1, human wild-type CD33; experiment: flow cytometry, IgG at 0.25 ug/ml on HEK293-T cells expressing CD33 against vector alone
Description: as §2

T1 sequence (P20138 18-364 limits assumed): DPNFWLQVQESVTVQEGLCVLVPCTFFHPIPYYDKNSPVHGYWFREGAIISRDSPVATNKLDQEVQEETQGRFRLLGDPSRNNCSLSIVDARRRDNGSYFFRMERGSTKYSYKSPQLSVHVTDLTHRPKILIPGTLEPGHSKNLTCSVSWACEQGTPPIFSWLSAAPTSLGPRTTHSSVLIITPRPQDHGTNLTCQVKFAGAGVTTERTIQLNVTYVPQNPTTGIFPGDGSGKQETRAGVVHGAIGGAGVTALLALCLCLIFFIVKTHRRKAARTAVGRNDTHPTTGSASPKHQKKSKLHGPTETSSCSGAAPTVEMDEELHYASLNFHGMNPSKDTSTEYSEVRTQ
Chain of human CD33 F43A (P20138 18-364 F43A limits assumed): as the sequence (P20138 18-364 limits assumed) above, with F26A counted along it
Chain of human CD33 F21A (P20138 18-364 F21A limits assumed): as the sequence (P20138 18-364 limits assumed) above, with F4A counted along it
Chain of human CD33 L38A (P20138 18-364 L38A limits assumed): as the sequence (P20138 18-364 limits assumed) above, with L21A counted along it
Chain of human CD33 S28A (P20138 18-364 S28A limits assumed): as the sequence (P20138 18-364 limits assumed) above, with S11A counted along it
Chain of human CD33 N20A (P20138 18-364 N20A limits assumed): as the sequence (P20138 18-364 limits assumed) above, with N3A counted along it
Chain of human CD33 G34A (P20138 18-364 G34A limits assumed): as the sequence (P20138 18-364 limits assumed) above, with G17A counted along it
Chain of human CD33 P19A (P20138 18-364 P19A limits assumed): as the sequence (P20138 18-364 limits assumed) above, with P2A counted along it
Chain of human CD33 W22A (P20138 18-364 W22A limits assumed): as the sequence (P20138 18-364 limits assumed) above, with W5A counted along it
Chain of human CD33 V29A (P20138 18-364 V29A limits assumed): as the sequence (P20138 18-364 limits assumed) above, with V12A counted along it
Chain of human CD33 H45A (P20138 18-364 H45A limits assumed): as the sequence (P20138 18-364 limits assumed) above, with H28A counted along it
Chain of human CD33 T30A (P20138 18-364 T30A limits assumed): as the sequence (P20138 18-364 limits assumed) above, with T13A counted along it
Chain of human CD33 C36A (P20138 18-364 C36A limits assumed): as the sequence (P20138 18-364 limits assumed) above, with C19A counted along it
Chain of human CD33 Q32A (P20138 18-364 Q32A limits assumed): as the sequence (P20138 18-364 limits assumed) above, with Q15A counted along it
Chain of human CD33 Q26A (P20138 18-364 Q26A limits assumed): as the sequence (P20138 18-364 limits assumed) above, with Q9A counted along it
Chain of human CD33 E33A (P20138 18-364 E33A limits assumed): as the sequence (P20138 18-364 limits assumed) above, with E16A counted along it
Chain of human CD33 V25A (P20138 18-364 V25A limits assumed): as the sequence (P20138 18-364 limits assumed) above, with V8A counted along it
Chain of human CD33 F44A (P20138 18-364 F44A limits assumed): as the sequence (P20138 18-364 limits assumed) above, with F27A counted along it
Chain of human CD33 C41A (P20138 18-364 C41A limits assumed): as the sequence (P20138 18-364 limits assumed) above, with C24A counted along it
Chain of human CD33 L23A (P20138 18-364 L23A limits assumed): as the sequence (P20138 18-364 limits assumed) above, with L6A counted along it
Chain of human CD33 D18A (P20138 18-364 D18A limits assumed): as the sequence (P20138 18-364 limits assumed) above, with D1A counted along it
Chain of human CD33 E27A (P20138 18-364 E27A limits assumed): as the sequence (P20138 18-364 limits assumed) above, with E10A counted along it
Chain of human CD33 V37A (P20138 18-364 V37A limits assumed): as the sequence (P20138 18-364 limits assumed) above, with V20A counted along it
Chain of human CD33 V31A (P20138 18-364 V31A limits assumed): as the sequence (P20138 18-364 limits assumed) above, with V14A counted along it
Chain of human CD33 P40A (P20138 18-364 P40A limits assumed): as the sequence (P20138 18-364 limits assumed) above, with P23A counted along it
Chain of human CD33 Q24A (P20138 18-364 Q24A limits assumed): as the sequence (P20138 18-364 limits assumed) above, with Q7A counted along it
Chain of human CD33 V39A (P20138 18-364 V39A limits assumed): as the sequence (P20138 18-364 limits assumed) above, with V22A counted along it
Chain of human CD33 L35A (P20138 18-364 L35A limits assumed): as the sequence (P20138 18-364 limits assumed) above, with L18A counted along it
Chain of human CD33 T42A (P20138 18-364 T42A limits assumed): as the sequence (P20138 18-364 limits assumed) above, with T25A counted along it

B1: Refmab #1 Fab fragment (Fab, V domains shown)
VH: EVQLVQSGAEVKKPGSSVKVSCKASGYTITDSNIHWVRQAPGQSLEWIGYIYPYNGGTDYNQKFKNRATLTVDNPTNTAYMELSSLRSEDTAFYYCVNGNPWLAYWGQGTLVTVSS
VL: DIQLTQSPSTLSASVGDRVTITCRASESLDNYGIRFLTWFQQKPGKAPKLLMYAASNQGSGVPSRFSGSGSGTEFTLTISSLQPDDFATYYCQQTKEVPWSFGQGTKVEVK
Signal:Background (human wild-type CD33 [1]): 33 signal:background ratio

B4: Refmab #5 (antibody, V domains shown)
VH: QVQLVQSGAEVKKPGASVKVSCKASGYTFTNYDINWVRQAPGQGLEWIGWIYPGDGSTKYNEKFKAKATLTADTSTSTAYMELRSLRSDDTAVYYCASGYEDAMDYWGQGTTVTVSS
VL: DIQMTQSPSSLSASVGDRVTINCKASQDINSYLSWFQQKPGKAPKTLIYRANRLVDGVPSRFSGSGSGQDYTLTISSLQPEDFATYYCLQYDEFPLTFGGGTKVEIK
notes: The alanine scan used IgG or Fab
Mean % WT Binding (human CD33 W22A): 114 % of WT
Mean % WT Binding (human CD33 C36A): 137 % of WT
Mean % WT Binding (human CD33 S28A): 105 % of WT
Mean % WT Binding (human CD33 N20A): 94.4 % of WT
Mean % WT Binding (human CD33 V25A): 143 % of WT
Mean % WT Binding (human CD33 D18A): 139 % of WT
Mean % WT Binding (human CD33 G34A): 101 % of WT
Mean % WT Binding (human CD33 E27A): 186 % of WT
Mean % WT Binding (human CD33 Q26A): 104 % of WT
Mean % WT Binding (human CD33 C41A): 30.9 % of WT
Mean % WT Binding (human CD33 T42A): 115 % of WT
Mean % WT Binding (human CD33 V37A): 148 % of WT
Mean % WT Binding (human CD33 F43A): 87.8 % of WT
Mean % WT Binding (human CD33 L23A): 118 % of WT
Mean % WT Binding (human CD33 V29A): 122 % of WT
Mean % WT Binding (human CD33 L38A): 180 % of WT
Mean % WT Binding (human CD33 F21A): 197 % of WT
Mean % WT Binding (human CD33 V31A): 112 % of WT
Mean % WT Binding (human CD33 H45A): 58.4 % of WT
Mean % WT Binding (human CD33 V39A): 116 % of WT
Mean % WT Binding (human CD33 E33A): 106 % of WT
Mean % WT Binding (human CD33 P19A): 114 % of WT
Mean % WT Binding (human CD33 Q32A): 148 % of WT
Mean % WT Binding (human CD33 F44A): 122 % of WT
Mean % WT Binding (human CD33 Q24A): 115 % of WT
Mean % WT Binding (human CD33 T30A): 118 % of WT
Mean % WT Binding (human CD33 P40A): 117 % of WT
Mean % WT Binding (human CD33 L35A): 112 % of WT

B5: Refmab #5 (antibody, human IgG1, V domains shown)
VH: B4 VH
VL: B4 VL
notes: Full-length MAb format, human IgG1 Fc silent (PG-LALA)
Signal:Background (human wild-type CD33 [4]): 37 signal:background ratio

Second part, the binder after the results:

Signal:Background (human wild-type CD33 [2]): 57 signal:background ratio
B2: Refmab #6 (antibody, human IgG1, V domains shown)
VH: QVQLQQPGAEVVKPGASVKMSCKASGYTFTSYYIHWIKQTPGQGLEWVGVIYPGNDDISYNQKFQGKATLTADKSSTTAYMQLSSLTSEDSAVYYCAREVRLRYFDVWGQGTTVTVSS
VL: EIVLTQSPGSLAVSPGERVTMSCKSSQSVFFSSSQKNYLAWYQQIPGQSPRLLIYWASTRESGVPDRFTGSGSGTDFTLTISSVQPEDLAIYYCHQYLSSRTFGQGTKLEIK
notes: as for B5

Signal:Background (human wild-type CD33 [3]): 51 signal:background ratio
B3: Refmab #6 Fab fragment (Fab, V domains shown)
VH: B2 VH
VL: B2 VL
